Read-outs that look alike come from different tables or passages of the source. Marks after values point to notes of the source that are not given here. Positions of bridges follow the written chain, without caps; N, C: chain ends. Non-standard residues stand in square brackets, D forms with d. No end group written: not given here. *: point of attachment. ATB = 4-(1-azi-2,2,2-trifluoroethyl)benzoyl, O=C(c1ccc(C2(C(F)(F)F)N=N2)cc1)*
What was measured:
[1] = target: mouse CRF receptor, type 2β (mCRFR2β) (mouse) (UniProt Q60748); experiment: displacement of [125I-Tyr0]Svg from HEK-mCRFR2β membranes
[2] = target: mouse CRF receptor, type 2β (mCRFR2β) (mouse) (UniProt Q60748); experiment: Kd(rCRFR1)/Kd(mCRFR2β) of the peptide normalised to that of astressin; radioligand displacement
mCRFR2β [3] = target: T1, mCRFR2β (Mus musculus, UniProt Q60748); experiment: Displacement of [^125I-Tyr^0]Svg from membranes of HEK-mCRFR2β cells; type: binding; settings: for Selectivity: Kd(rCRFR1)(peptide)/Kd(rCRFR1)(astressin) × Kd(mCRFR2β)(astressin)/Kd(mCRFR2β)(peptide)
T1 construct: expressed in transfected cells; host or cells: HEK 293 cells, stably transfected (HEK-mCRFR2β); membrane homogenates
Method: (§1) Binding assays were performed in 96-well MultiScreen plates (Millipore, Eschborn, Germany) with GF/B filters (pore size 1.0 μm). […] After incubation (60 min, 23° C.), membrane suspension was aspirated through the plate, followed by two washes with assay buffer (0.2 ml, 23°). Radioactivity of the punched filters was measured with a 1470 WIZARD automatic gamma counter (Berthold, Hannover). […] Statistical analysis was performed with ANOVA, and significant differences between groups were determined by post hoc comparison using the Dunn test.
Membrane homogenates of human embryonic kidney (HEK) 293 cells stably transfected with cDNA coding for rat CRF receptor, type 1 (rCRFR1) or mouse CRF receptor, type 2β (mCRFR2β) were prepared according to standard protocols (see, e.g., Sambrook et al., Molecular Cloning: A Laboratory Manual, 2nd. Edition, Cold Spring Habor Laboratory Press, Cold Spring Habor, N.Y., 1989; Ausubel et al., Current Protocols in Molecular Biology, Green Publishing Associates and Wiley Interscience, NY, 1989).

rCRFR1 = target: T2, rCRFR1 (Rattus norvegicus, UniProt P35353); experiment: cAMP stimulation / inhibition of oCRF-stimulated cAMP production in HEK-rCRFR1 cells; type: cell-based; settings: for rCRFR1 relative in vitro potency: Table 2, oCRF alone = 1.00 (lower = stronger inhibition)
T2 construct: expressed in transfected cells; host or cells: HEK 293 cells, stably transfected (HEK-rCRFR1)
T2 sequence (P35353 24-415): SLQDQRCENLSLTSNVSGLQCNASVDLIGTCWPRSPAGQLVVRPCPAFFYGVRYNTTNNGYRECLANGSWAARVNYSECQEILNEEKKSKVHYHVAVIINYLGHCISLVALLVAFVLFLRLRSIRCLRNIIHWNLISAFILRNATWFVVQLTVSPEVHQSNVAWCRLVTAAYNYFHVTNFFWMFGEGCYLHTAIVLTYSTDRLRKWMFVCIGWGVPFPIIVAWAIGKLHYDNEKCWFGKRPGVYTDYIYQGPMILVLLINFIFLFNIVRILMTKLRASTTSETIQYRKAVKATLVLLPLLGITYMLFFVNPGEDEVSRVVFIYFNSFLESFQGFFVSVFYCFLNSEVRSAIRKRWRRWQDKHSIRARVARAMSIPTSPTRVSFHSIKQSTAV
Method: (§2) HEK-rCRFR1 cells or HEK-mCRFR2β cells were incubated with different CRF agonists in the presence or absence of 1 μM or 10 nM antagonist, or CRF antagonist (c=1 μM) alone. After removal of the medium, cells were lyzed with aqueous 6% trichloroacetic acid (5 min, 100° C.) (Rühmann, A., A. K. E. Köpke, F. M. Dautzenberg, and J. Spiess, Proc. Natl. Acad. Sci. USA 93: 10609-10613, 1996). The cell lysates were stored at −70° C. until assayed with a RIA kit (Amersham, Little Chalfont). […] Statistical significance was determined across groups with ANOVA, and significant differences between groups were determined by post hoc comparison using the Dunn test.
(§3) Intrinsic activities were measured at peptide concentrations generating maximal formation of cAMP in HEK-rCRFR1 or HEK-mCRFR2β cells.

mCRFR2β [4] = target: T1, mCRFR2β; experiment: cAMP stimulation / inhibition of Svg-stimulated cAMP production in HEK-mCRFR2β cells; type: cell-based; settings: for mCRFR2β relative in vitro potency: Table 2, Svg alone = 1.00 (lower = stronger inhibition)
Method: as §2, §3
Target sequence in this assay (Q60748 1-431 isoform Q60748-2): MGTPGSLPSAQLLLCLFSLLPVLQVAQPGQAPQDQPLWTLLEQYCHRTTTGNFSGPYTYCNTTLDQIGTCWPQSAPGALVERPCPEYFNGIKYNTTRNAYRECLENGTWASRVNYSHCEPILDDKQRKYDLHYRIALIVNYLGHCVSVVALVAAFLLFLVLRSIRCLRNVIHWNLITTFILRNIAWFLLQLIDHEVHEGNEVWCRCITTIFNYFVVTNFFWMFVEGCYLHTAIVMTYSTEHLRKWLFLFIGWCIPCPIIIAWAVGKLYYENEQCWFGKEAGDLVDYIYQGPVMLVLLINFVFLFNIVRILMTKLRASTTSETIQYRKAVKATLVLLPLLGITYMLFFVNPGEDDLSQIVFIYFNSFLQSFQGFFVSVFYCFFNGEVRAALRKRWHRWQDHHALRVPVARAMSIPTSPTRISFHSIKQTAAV

[5] = target: T3, rat CRF receptor, type 1 (rCRFR1) (rat, UniProt P35353 24-415); experiment: cell-based or functional assay
T3 sequence (looked up): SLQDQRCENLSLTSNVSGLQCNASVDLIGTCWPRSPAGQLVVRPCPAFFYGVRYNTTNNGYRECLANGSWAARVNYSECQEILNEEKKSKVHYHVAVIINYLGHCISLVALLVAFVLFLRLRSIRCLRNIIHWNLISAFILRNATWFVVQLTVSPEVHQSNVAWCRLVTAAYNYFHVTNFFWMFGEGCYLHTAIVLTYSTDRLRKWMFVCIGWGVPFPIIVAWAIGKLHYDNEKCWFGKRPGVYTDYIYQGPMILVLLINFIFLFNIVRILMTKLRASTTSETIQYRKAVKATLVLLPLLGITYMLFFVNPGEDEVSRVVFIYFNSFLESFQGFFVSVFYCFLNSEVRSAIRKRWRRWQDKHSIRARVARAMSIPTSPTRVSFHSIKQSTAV

[6] = target: T3, rat CRF receptor, type 1 (rCRFR1); experiment: cell-based or functional assay; remark: listed apart in the source
[7] = target: T3, rat CRF receptor, type 1 (rCRFR1); experiment: displacement of [125I-Tyr0]oCRF from HEK-rCRFR1 membranes
Method: as §1

[8] = target: T3, rat CRF receptor, type 1 (rCRFR1); experiment: as above; remark: listed apart in the source
Method: as §1

[9] = 1 μM antagonist, cAMP production stimulated by 1 nM oCRF
[10] = 10 nM antagonist, cAMP production stimulated by 1 nM Svg

Sequence of sauvagine (Svg) (peptide) (peptide): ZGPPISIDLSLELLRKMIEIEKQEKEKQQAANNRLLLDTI

Molecule	Kd [1]	Selectivity [2]	% IA (intrinsic activity), cAMP production, HEK-rCRFR1 cells [5]	rel. IA (relative intrinsic activity), cAMP production, HEK-rCRFR1 cells [6]	rel. pot. (relative potency), inhibition of oCRF-stimulated cAMP production, HEK-rCRFR1 cells [6]	Kd [8]	also measured
sauvagine (Svg) (peptide)	4.5 nM	0.109	–	–	–	–	–
astressin, cyclo(30-33)[DPhe^12, Nle^21,38, Glu^30, Lys^33]h/rCRF(12-41) (peptide)	4 nM	1	–	–	–	–	–
CC[C@H](C)[C@H](NC(=O)[C@@H](NC(=O)[C@H](CC(=O)O)NC(=O)[C@H](CC(C)C)NC(=O)[C@H](CC(C)C)NC(=O)[C@H](CC(C)C)NC(=O)[C@H](CCCNC(=N)N)NC(=O)[C@H](CC(N)=O)NC(=O)[C@H](CC(N)=O)NC(=O)[C@H](C)NC(=O)[C@H](C)NC(=O)[C@H](CCC(N)=O)NC(=O)[C@H](CCC(N)=O)NC(=O)[C@H](CCCCN)NC(=O)[C@H](CCC(=O)O)NC(=O)[C@H](CCCCN)NC(=O)[C@H](CCC(=O)O)NC(=O)[C@H](CCC(N)=O)NC(=O)[C@H](CCCCN)NC(=O)[C@H](CCC(=O)O)NC(=O)[C@@H](NC(=O)[C@H](CCC(=O)O)NC(=O)[C@@H](NC(=O)[C@H](CCSC)NC(=O)[C@H](CCCCN)NC(=O)[C@H](CCCNC(=N)N)NC(=O)[C@H](CC(C)C)NC(=O)[C@H](CC(C)C)NC(=O)[C@H](CCC(=O)O)NC(=O)[C@@H](N)Cc1ccc(O)cc1)[C@@H](C)CC)[C@@H](C)CC)[C@@H](C)O)C(N)=O [compound 19, [Tyr^11]Svg(11-40)]	–	–	–	–	–	–	Kd (mCRFR2β [3]): 20.8 ± 1.6 nM; Selectivity (mCRFR2β [3]; Table 3): 32.97; HEK-rCRFR1 cells rel. pot. (relative potency) (rCRFR1; Table 4, 1 μM antagonist, cAMP production stimulated by 1 nM oCRF, oCRF alone = 1.00): 0.82 ± 0.06; Emax (rCRFR1; read-out: HEK-rCRFR1 cells rel. IA (relative intrinsic activity)): 9 ± 1%; HEK-mCRFR2β cells rel. pot. (relative potency) (mCRFR2β [4]; Table 4, 10 nM antagonist, cAMP production stimulated by 1 nM Svg, Svg alone = 1.00): 0.67 ± 0.04; Emax (mCRFR2β [4]; read-out: HEK-mCRFR2β cells rel. IA (relative intrinsic activity)): 0.7 ± 0.2%
[DPhe^11]rUcn(11-40) [compound 7]	–	–	–	–	–	–	Selectivity (mCRFR2β [3]; Table 1): 4.45; rCRFR1 relative in vitro potency (rCRFR1; [9]): 0.18 ± 0.03^g; mCRFR2β relative in vitro potency (mCRFR2β [4]; [10]): 0.57 ± 0.06
[DPhe^12, Nle^21,38]h/rCRF(12-41) [compound 5, reference compound]	–	–	–	–	–	–	Selectivity (mCRFR2β [3]; Table 1): 1.84; rCRFR1 relative in vitro potency (rCRFR1; [9]): 0.33 ± 0.08^h,i; mCRFR2β relative in vitro potency (mCRFR2β [4]; [10]): 0.87 ± 0.08^i
[dF]HLLRTILELARTQSQRERAEQNRIIFDSV (ends and bridges not checked) [[DPhe^11]rUcn(11-40)]	–	–	0.07 relative, oCRF = 1.00	–	–	–	–
[dL]ELLRTILELARTQSQRERAEQNRIIFDSV (ends and bridges not checked) [[DLeu^11, Glu^12]rUcn(11-40)]	–	–	0.23 relative, oCRF = 1.00	–	–	–	–
[dF]HLLRTILELARTQSQREEAEKNRIIFDSV (lactam 19-22; ends not checked) [cyclo(29-32)[DPhe^11, Glu^29, Lys^32]rUcn(11-40)]	–	–	0.1 relative, oCRF = 1.00	–	–	–	–
[dF]ELLRTILELARTQSQRERAEQNRIIFDSV (ends and bridges not checked) [[DPhe^11, Glu^12]rUcn(11-40)]	–	–	0.22 relative, oCRF = 1.00	–	–	–	–
[dF]ELLRKMIEIEKQEKEKQQAANNRLLLDTI (not fully specified (C-terminus), also called compound 12) [[DPhe^11]Svg(11-40)]	3.5 nM	47.6	0.07 relative, oCRF = 1.00	0.07 relative, oCRF = 1.00	0.75 relative, oCRF = 1.00	237 nM	relative in vitro potency, inhibition of oCRF-stimulated cAMP production, HEK-rCRFR1 cells [5]: 0.75 relative, oCRF = 1.00; Kd [7]: 237 nM
[dL]ELLRKMIEIEKQEKEKQQAANNRLLLDTI (not fully specified (C-terminus), also called compound 13) [[DLeu^11]Svg(11-40)]	20.9 nM	56.1	0.22 relative, oCRF = 1.00	0.22 relative, oCRF = 1.00	0.92 relative, oCRF = 1.00	1670 nM	relative in vitro potency, inhibition of oCRF-stimulated cAMP production, HEK-rCRFR1 cells [5]: 0.92 relative, oCRF = 1.00; Kd [7]: 1670 nM
[dF]HLLRKMIEIEKQEKEKQQAANNRLLLDTI (not fully specified (C-terminus)) [antisauvagine-30, [DPhe^11, His^12]Svg(11-40)]	–	77	0.04 relative, oCRF = 1.00	–	–	–	–
LELLRKMIEIEKQEKEKQQAANNRLLLDTI (not fully specified (C-terminus), also called compound 14) [Svg(11-40)]	15.4 nM	37.9	0.14 relative, oCRF = 1.00	0.14 relative, oCRF = 1.00	0.76 relative, oCRF = 1.00	831 nM	relative in vitro potency, inhibition of oCRF-stimulated cAMP production, HEK-rCRFR1 cells [5]: 0.76 relative, oCRF = 1.00; Kd [7]: 831 nM
[dF]HLLREVLEMTKADQLAQQAHSNRKLLDIA (ends and bridges not checked) [[DPhe^12]oCRF(12-41)]	–	–	0.05 relative, oCRF = 1.00	–	–	–	–
{ATB}-HLLRKMIEIEKQEKEKQQAANNRLLLDTI (ends and bridges not checked, also called compound 17) [ATB-[His^12]Svg(12-40)]	–	32.3	–	0.15 relative, oCRF = 1.00	0.54 relative, oCRF = 1.00	142 nM	–
YLLRKMIEIEKQEKEKQQAANNRLLLDTI (ends and bridges not checked, also called compound 20) [[Tyr^12]Svg(12-40)]	–	1.63	–	0.06 relative, oCRF = 1.00	0.9 relative, oCRF = 1.00	996 nM	–
